Measured values: publication PMC12447488, “Targeting Both Monomer and Oligomer with Fibrinogen Efficiently Suppresses Amyloid Fibril Formation and Cell Toxicity of Amyloid β 1‑42” (ACS Chemical Neuroscience, 2025)

B1: human fibrinogen (complex)
chain 1: ADSGEGDFLAEGGGVRGPRVVERHQSACKDSDWPFCSDEDWNYKCPSGCRMKGLIDEVNQDFTNRINKLKNSLFEYQKNNKDSHSLTTNIMEILRGDFSSANNRDNTYNRVSEDLRSRIEVLKRKVIEKVQHIQLLQKNVRAQLVDMKRLEVDIDIKIRSCRGSCSRALAREVDLKDYEDQQKQLEQVIAKDLLPSRDRQHLPLIKMKPVPDLVPGNFKSQLQKVPPEWKALTDMPQMRMELERPGGNEITRGGSTSYGTGSETESPRNPSSAGSWNSGSSGPGSTGNRNPGSSGTGGTATWKPGSSGPGSTGSWNSGSSGTGSTGNQNPGSPRPGSTGTWNPGSSERGSAGHWTSESSVSGSTGQWHSESGSFRPDSPGSGNARPNNPDWGTFEEVSGNVSPGTRREYHTEKLVTSKGDKELRTGKEKVTSGSTTTTRRSCSKTVTKTVIGPDGHKEVTKEVVTSEDGSDCPEAMDLGTLSGIGTLDGFRHRHPDEAAFFDTASTGKTFPGFFSPMLGEFVSETESRGSESGIFTNTKESSSHHPGIAEFPSRGKSSSYSKQFTSSTSYNRGDSTFESKSYKMADEAGSEADHEGTHSTKRGHAKSRPV
chain 2: QGVNDNEEGFFSARGHRPLDKKREEAPSLRPAPPPISGGGYRARPAKAAATQKKVERKAPDAGGCLHADPDLGVLCPTGCQLQEALLQQERPIRNSVDELNNNVEAVSQTSSSSFQYMYLLKDLWQKRQKQVKDNENVVNEYSSELEKHQLYIDETVNSNIPTNLRVLRSILENLRSKIQKLESDVSAQMEYCRTPCTVSCNIPVVSGKECEEIIRKGGETSEMYLIQPDSSVKPYRVYCDMNTENGGWTVIQNRQDGSVDFGRKWDPYKQGFGNVATNTDGKNYCGLPGEYWLGNDKISQLTRMGPTELLIEMEDWKGDKVKAHYGGFTVQNEANKYQISVNKYRGTAGNALMDGASQLMGENRTMTIHNGMFFSTYDRDNDGWLTSDPRKQCSKEDGGGWWYNRCHAANPNGRYYWGGQYTWDMAKHGTDDGVVWMNWKGSWYSMRKMSMKIRPFFPQQ
chain 3: YVATRDNCCILDERFGSYCPTTCGIADFLSTYQTKVDKDLQSLEDILHQVENKTSEVKQLIKAIQLTYNPDESSKPNMIDAATLKSRKMLEEIMKYEASILTHDSSIRYLQEIYNSNNQKIVNLKEKVAQLEAQCQEPCKDTVQIHDITGKDCQDIANKGAKQSGLYFIKPLKANQQFLVYCEIDGSGNGWTVFQKRLDGSVDFKKNWIQYKEGFGHLSPTGTTEFWLGNEKIHLISTQSAIPYALRVELEDWNGRTSTADYAMFKVGPEADKYRLTYAYFAGGDAGDAFDGFDFGDDPSDKFFTSHNGMQFSTWDNDNDKFEGNCAEQDGSGWWMNKCHAGHLNGVYYQGGTYSKASTPNGYDNGIIWATWKTRWYSMKKTTMKIIPFNRLTIGEGQQHHLGGAKQAGDV
modifications: Natural plasma hexamer (AαBβγ)2, about 340 kDa, disulfide-linked and N-glycosylated, fibrinopeptides A and B retained. Aα is the 610-residue plasma form (the paper gives αC as 221-610); mature 1-610 =
B2: bovine fibrinogen (complex)
chain 1: EDGSDPPSGDFLTEGGGVRGPRLVERQQSACKETGWPFCSDEDWNTKCPSGCRMKGLIDEVDQDFTSRINKLRDSLFNYQKNSKDSNTLTKNIVELMRGDFAKANNNDNTFKQISEDLRSRIEILRRKVIEQVQRIKVLQKNVRDQLVDMKRLEVDIDIKIRSCKGSCSRALEHKVDLEDYKNQQKQLEQVIAINLLPSRDIQYLPLIKMSTITGPVPREFKSQLQEAPLEWKALLEMQQTKMVLETFGGDGHARGDSVSQGTGLAPGSPRKPGTSSIGNVNPGSYGPGSSGTWNPGRPEPGSAGTWNPGRPEPGSAGTWNPGRPEPGSAGTWNPGRPEPGSAGTWNPGRPEPGSAGTWNTGSSGSSSFRPDSSGHGNIRPSSPDWGTFREEGSVSSGTKQEFHTGKLVTTKGDKELLIDNEKVTSGHTTTTRRSCSKVITKTVTNADGRTETTKEVVKSEDGSDCGDADFDWHHTFPSRGNLDDFFHRDKDDFFTRSSHEFDGRTGLAPEFAALGESGSSSSKTSTHSKQFVSSSTTVNRGGSAIESKHFKMEDEAESLEDLGFKGAHGTQKGHTKARPARGIHTSPLGEPSLTP
chain 2: QFPTDYDEGQDDRPKVGLGARGHRPYDKKKEEAPSLRPVPPPISGGGYRARPATATVGQKKVERKPPDADGCLHADPDLGVLCPTGCKLQDTLVRQERPIRKSIEDLRNTVDSVSRTSSSTFQYITLLKNMWKGRQNQVQDNENVVNEYSSHLEKHQLYIDETVKNNIPTKLRVLRSILENLRSKIQKLESDVSTQMEYCRTPCTVTCNIPVVSGKECEKIIRNEGETSEMYLIQPEDSSKPYRVYCDMKTEKGGWTVIQNRQDGSVDFGRKWDPYKQGFGNIATNAEGKKYCGVPGEYWLGNDRISQLTNMGPTKLLIEMEDWKGDKVTALYEGFTVQNEANKYQLSVSKYKGTAGNALIEGASQLVGENRTMTIHNSMFFSTYDRDNDGWKTTDPRKQCSKEDGGGWWYNRCHAANPNGRYYWGGAYTWDMAKHGTDDGVVWMNWQGSWYSMKKMSMKIRPYFPEQ
chain 3: YVATRDNCCILDERFGSYCPTTCGIADFLNNYQTSVDKDLRTLEGILYQVENKTSEARELVKAIQISYNPDQPSKPNNIESATKNSKSMMEEIMKYETLISTHESTIRFLQEVYNSNSQKIVNLRDKVVQLEANCQEPCQDTVKIHDVTGRDCQDVANKGAKESGLYFIRPLKAKQFLVYCEIDGSGNGWTVFQKRLDGSLDFKKNWIQYKEGFGHLSPTGTGNTEFWLGNEKIHLISTQSSIPYVLRIQLEDWNGRTSTADYASFKVTGENDKYRLTYAYFIGGDAGDAFDGYDFGDDSSDKFFTSHNGMQFSTWDSDNDKYDGNCAEQVGIGWWMNKCHAGHLNGVYYQGGTYSKTSTPNGYDNGIIWATWKSRWYSMKKTTMKIIPLNRLAIGEGQQHQLGGAKQVGVEHHVEIEYD
notes: fibrinogen Aα chain, bovine; fibrinogen Bβ chain, bovine; fibrinogen γ chain, bovine; About 340 kDa, six polypeptide chains (two Aα, two Bβ, two γ); also called bFg; source: bought: Wako Pure Chemical Industries (from plasma), purified via size-exclusion chromatography (monomer fractions); copies: 2 + 2 + 2

Columns and labels:
Settings in all cases: both partners purified
Amyloid β 1-42 monomer [1] = target: T1, Amyloid β 1-42 monomer (UniProt P05067 672-713); experiment: far-Western, overlay or dot blot; Aβ42 20 μM incubated with bFg or hFg (0.03, 0.3, 3 μM) for 1 h at 37 °C in 50 mM phosphate/200 mM NaCl pH 7.4, then dotted; loss of the spot intensity of antibody 4G8 (monomer) or A11 (oligomer) taken as binding by steric hindrance; apparent Kd from fit or simulation with eq S6
T1 construct: printed molecular weight 4512 g/mol; numbers count on: the Aβ peptide; read out with antibody 4G8 in the dot blot; also called Aβ42; Aβ42 monomer; source: bought: Peptide Institute, Inc. (Japan), used without further purification

Amyloid β 1-42 oligomer [2] = target: T2, Amyloid β 1-42 oligomer (UniProt P05067 672-713); experiment: as above
T2 construct: numbers count on: the Aβ peptide; granular particles of 5.0 ± 0.9 nm height in AFM; read out with antibody A11 in the dot blot; also called Aβ42 oligomer; Aβ oligomers; source: formed from bought Aβ42 (Peptide Institute, Inc.) at 20 μM during 1 h at 37 °C in 50 mM phosphate/200 mM NaCl (pH 7.4); copies: 12

Amyloid β 1-42 monomer [3] = target: T1, Amyloid β 1-42 monomer; experiment: far-Western, overlay or dot blot + AUC; number of binding sites on bFg worked out from the concentrations of Aβ42 species (18 μM monomer, about 0.17 μM oligomer) and of bFg at which the interaction was seen
Amyloid β 1-42 oligomer [4] = target: T2, Amyloid β 1-42 oligomer; experiment: as above

| Binder | Kd (Amyloid β 1-42 monomer [1]) | Kd (Amyloid β 1-42 oligomer [2]) | stoichiometry N (Amyloid β 1-42 monomer [3]) | stoichiometry N (Amyloid β 1-42 oligomer [4]) |
| --- | --- | --- | --- | --- |
| B1 | ≥ 100 µM | 1.4 ± 0.2 µM |  |  |
| B2 | ~1 µM | 0.2 ± 0.05 µM | ≤ 6 | ≥ 2 |
